B1: Patched domain-containing protein 1 (Mus musculus), Q14B62 (parent)
chain: MLRQVLHRGLRTCFSRLGHFIASHPVFFASAPVLISILLGASFSRYQVEESVEHLLAPQHSLAKIERNLVNSLFPVNRSKHRLYSDLQTPGRYGRVIVTSYQKANMLDQHHTDLILKLHTAVTKIQVPRPGFNYTFAHICVLNNDKTCIVDDIVHVLEELKNARATNRTNFAITYPITHLKDGRAVYNGHQLGGVTVHSKDRVKSAEAIQLTYYLQSINSLNDMVAERWESSFCDTVKLFQKSNSKVKIYPYTSSSLREDFQKTSRVSERYLVTSLILVVTMAILCCSMQDCVRSKPWLGLLGLVTISLATLTAAGIINLTGGKYNSTFLGVPFVMLGHGLYGTFEMLSSWRKTREDQHVKERTAEVYADSMLSFSLTTAMYLVTFGIGASPFTNIEAARIFCCNSCIAILFNYLYVLSFYGSSLVFTGYIENNYQHSIFCRKVPKPDVLQEKPAWYRFLLTARFSEETAEGEEANTYESHLLVCFLKRYYCDWITNTYVKPFVVLFYLIYISFALMGYLQVSEGSDLSNIVATATQTIEYTTAHQKYFNNYSPVIGFYIYESIEYWNSSVQEDVLEYTKGFVRISWFESYLNYLRKLNVSTDLPKKNFTDMLRNSFLKTPQFSHFQEDIIFSKKYNDEVDVVASRMFLVAKTMETNREELYDLLETLRRLSVTSKVKFIVFNPSFVYMDRYASSLGAPLHNSCISALFLLFFSAFLVADSLINVWITLTVVSVEFGVIGFMTLWKVELDCISVLCLIYGINYTIDNCAPLLSTFVLGKDFTRTKWVKNALEVHGVAILQSYLCYIVGLFPLAAVPSNLTCTLFRCLFLIAFVTFFHCFAILPVILTFLPPSKKKRKEKKNPENREEIECVEMVDIDSTRVVDQITTV
partner: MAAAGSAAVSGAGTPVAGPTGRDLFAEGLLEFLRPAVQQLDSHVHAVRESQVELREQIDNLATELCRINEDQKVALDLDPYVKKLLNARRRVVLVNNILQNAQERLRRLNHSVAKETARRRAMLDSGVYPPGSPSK

Variants of: B1
Conditions: with snapn_mouse Snapin

effect of a mutation on the interaction | Variant
decreasing interaction strength | Y213C
increasing interaction strength | D527E
with no effect | Q102R
with no effect | L73F
decreasing interaction strength | K181T
decreasing interaction strength | P75L
decreasing interaction strength | P75Q
with no effect | V150M
with no effect | S51N
increasing interaction strength | T602A
decreasing interaction strength | V195I
increasing interaction strength | F549C

From IntAct's records for PubMed 40475291
